Assay in all cases: EMSA; 10% glycerol, 20 mM HEPES pH 7.8, 45 mM KCl, 10 mM NaCl, 1 mM EDTA, 1 mM DTT, 0.2 ug/uL BSA, 0.1% NP-40, 50 ng poly-dIdC; 20 ng each GST protein; room temperature 30 min (heterodimers 4 C); 6% PAGE 0.25x TBE
What all share (conditions): protein: recombinant; tags: GST (N-terminal, pGEX-6P-1); label: 32P-dCTP fill-in of the 5' (dG)5 overhangs of both strands (Methods; control probes are given with GGG)
For orientation: In EMSA bound probe runs differently from free probe, usually more slowly.

For data set [1], the target named is T1, Brn2 DNA-binding domain (BD-Brn2) (Mus musculus (B6), UniProt P31360 336-435).
T1 sequence: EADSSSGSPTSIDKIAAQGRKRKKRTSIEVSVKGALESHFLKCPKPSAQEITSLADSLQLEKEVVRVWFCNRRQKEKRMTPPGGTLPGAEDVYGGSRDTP
In a few lines:
(§1)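 DNA binding of transcription factor DNA-binding domains to candidate cis-elements was read from band radioactivity in the expected shift region. The GST-tagged domains came from E. coli BL21 via glutathione-sepharose; probes were annealed oligonucleotides labelled with 32P-dCTP. Each assay used 20 ng protein, 40,000–50,000 cpm probe and 50 ng poly-dIdC for 30 min at room temperature, followed by 6% polyacrylamide electrophoresis in 0.25×TBE at 4°C.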

The target of data set [2] is Pax6 DNA-binding domain (BD-Pax6) (Mus musculus (B6), UniProt P63015 190-289). In a few lines:
as §1

The target in data set [3] is T2, Oct6 DNA-binding domain (BD-Oct6) (Mus musculus (B6), UniProt P21952 317-416).
T2 sequence: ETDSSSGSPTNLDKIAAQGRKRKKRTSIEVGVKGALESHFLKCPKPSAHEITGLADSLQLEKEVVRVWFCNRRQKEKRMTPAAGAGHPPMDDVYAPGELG
In a few lines: as §1

Chain of Pax6 DNA-binding domain (BD-Pax6) (P63015 190-289): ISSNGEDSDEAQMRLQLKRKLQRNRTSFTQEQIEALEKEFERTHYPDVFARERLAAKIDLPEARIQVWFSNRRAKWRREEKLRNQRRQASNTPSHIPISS

B1: 15 (dsDNA)
DNA 1: GGGGGAGATCTTTACAAATTTCTATATTAGAGTTTTTTGTCCCCC
DNA 2: GGGGGACAAAAAACTCTAATATAGAAATTTGTAAAGATCTCCCCC
For the molecule B1, the binding result in data set [1], in data set [2] and in data set [3] was “no binding” each time.

B2: 27 (dsDNA)
DNA 1: GGGGGCACACCTGTTTGTTTTCCACTTCACAGAGGAGGCATAGGAAACTCCCCC
DNA 2: GGGGGAGTTTCCTATGCCTCCTCTGTGAAGTGGAAAACAAACAGGTGTGCCCCC
On to B2, for which the binding result in data set [1], in data set [2] and in data set [3] was “no binding” in each case.

B3: 17 (dsDNA)
DNA 1: GGGGGTTTAAAGATTTGTTTCTTTATTATATGTAAGTACCCCC
DNA 2: GGGGGTACTTACATATAATAAAGAAACAAATCTTTAAACCCCC
Consider B3, for which the figures for the binding result in data set [1], in data set [2] and in data set [3] were “binds”, “no binding” and “binds”, respectively.

B4: 29 (dsDNA)
DNA 1: GGGGGAAAAACTTTTTGTTATTTCATTTTTATTAGTGGCCCCC
DNA 2: GGGGGCCACTAATAAAAATGAAATAACAAAAAGTTTTTCCCCC
Take B4: the binding result in data set [1] is given as “no binding”; in data set [2], “no binding”; in data set [3], “binds”.

B5: 28 (dsDNA)
DNA 1: GGGGGAAAAAAGATTCTAATCTTTTTTGTGGTGGTGGCCCCC
DNA 2: GGGGGCCACCACCACAAAAAAGATTAGAATCTTTTTTCCCCC
On to B5, for which the binding result in data set [1], in data set [2] and in data set [3] was “no binding” throughout.

B6: 20 (dsDNA)
DNA 1: GGGGGCTCAGAGCTAGAAATATTTGTGGAATGGGCCCCC
DNA 2: GGGGGCCCATTCCACAAATATTTCTAGCTCTGAGCCCCC
Take B6: the binding result in data set [1], in data set [2] and in data set [3] was “no binding” throughout.

B7: 23 (dsDNA)
DNA 1: GGGGGAATCTCTATCTTACTTCTTGTAAGTGTGGACAAATGCAGGTTCCCCC
DNA 2: GGGGGAACCTGCATTTGTCCACACTTACAAGAAGTAAGATAGAGATTCCCCC
Turning to B7, the binding result in data set [1], in data set [2] and in data set [3] was “no binding” each time.

B8: 26 (dsDNA)
DNA 1: GGGGGGTGGAGGCTTTGTGTAATCAGTCTGTGTACCCCC
DNA 2: GGGGGTACACAGACTGATTACACAAAGCCTCCACCCCCC
B8: the binding result was “binds” in data set [1], “no binding” in data set [2] and “binds” in data set [3].

B9: 22 (dsDNA)
DNA 1: GGGGGTACATACAGCAAAATAATCTTTGTAGGGGGGACCCCC
DNA 2: GGGGGTCCCCCCTACAAAGATTATTTTGCTGTATGTACCCCC
For the molecule B9, the binding result in data set [1], in data set [2] and in data set [3] was “no binding” throughout.

B10: 25 (dsDNA)
DNA 1: GGGGGCAGATAACTTTGTCCTTTTTGATTTTGAGTGAAGACCCCC
DNA 2: GGGGGTCTTCACTCAAAATCAAAAAGGACAAAGTTATCTGCCCCC
Take B10: the binding result in data set [1], in data set [2] and in data set [3] was “no binding” each time.

B11: 8 (dsDNA)
DNA 1: GGGGGGCTGTAACAGAATACCTGACAAAAGCAACTTCCCCC
DNA 2: GGGGGAAGTTGCTTTTGTCAGGTATTCTGTTACAGCCCCCC
For the molecule B11, the binding result in data set [1], in data set [2] and in data set [3] was “no binding” throughout.

B12: 21 (dsDNA)
DNA 1: GGGGGCAGAATCATTTGTGTTTTCCCATTTTTGCCAGGGGCCCCC
DNA 2: GGGGGCCCCTGGCAAAAATGGGAAAACACAAATGATTCTGCCCCC
Take B12: the binding result in data set [1], in data set [2] and in data set [3] was “no binding” each time.

B13: 16b (dsDNA)
DNA 1: GGGGGGTAGCTTCACAAAGTGATTAACACATGGATACCCCC
DNA 2: GGGGGTATCCATGTGTTAATCACTTTGTGAAGCTACCCCCC
For the molecule B13, the binding result is “binds” in data set [1], “no binding” in data set [2] and “binds” in data set [3].

B14: 16a (dsDNA)
DNA 1: GGGGGGTGAACCCTTTCAGATTTAGTGACGTAGCTTCACAAAGTGATTAACCCCC
DNA 2: GGGGGTTAATCACTTTGTGAAGCTACGTCACTAAATCTGAAAGGGTTCACCCCCC
As for B14, the results for the binding result in data set [1], in data set [2] and in data set [3] were “binds”, “no binding” and “binds”, respectively.

B15: 19 (dsDNA)
DNA 1: GGGGGGAAGGAAAATTGTTCCCTGACATTTTTGAACTGGGCCCCC
DNA 2: GGGGGCCCAGTTCAAAAATGTCAGGGAACAATTTTCCTTCCCCCC
B15: the binding result in data set [1], in data set [2] and in data set [3] was “no binding” throughout.

B16: 18 (dsDNA)
DNA 1: GGGGGCTTAGAATTAGTAATTTCTTGATATTGTCTGTTAAGCCCCC
DNA 2: GGGGGCTTAACAGACAATATCAAGAAATTACTAATTCTAAGCCCCC
Regarding B16, the binding result in data set [1] is “no binding”; in data set [2] it was “binds”; in data set [3] it was “binds”.

B17: 14 (dsDNA)
DNA 1: GGGGGGTCAGGATTTTGTGTGTGGATTAACTGTATCATCCCCC
DNA 2: GGGGGATGATACAGTTAATCCACACACAAAATCCTGACCCCCC
B17: the binding result in data set [1], in data set [2] and in data set [3] was “no binding” throughout.

B18: 13 (dsDNA)
DNA 1: GGGGGTCTCCTGCTTTGTAGTCACAGAGTAGTCAAGAAGGGCTCCCCC
DNA 2: GGGGGAGCCCTTCTTGACTACTCTGTGACTACAAAGCAGGAGACCCCC
Turning to B18, the binding result in data set [1], in data set [2] and in data set [3] was “no binding” each time.

B19: 24 (dsDNA)
DNA 1: GGGGGCTTGTATCTTTGTATGTTCACAGAAAGCAAAGTAGCGTGGCCCCC
DNA 2: GGGGGCCACGCTACTTTGCTTTCTGTGAACATACAAAGATACAAGCCCCC
Regarding B19, the binding result in data set [1], in data set [2] and in data set [3] was “no binding” in each case.
